Among the data in paper PMC5686756 (2017) are Kd values, retold here.

The target of assay [1] is T1, GB1-tagged ks-vFLIP (residues 1 to 188) (Kaposi's sarcoma-associated herpesvirus …, UniProt Q76RF1 1-188). The assay can be described thus: ITC; in buffer.
The target of assay [2] is T1, GB1-tagged ks-vFLIP (residues 1 to 188). The assay can be described thus: ITC; apparent Kd, competition in presence of spIKKγ (deionized water).

B1: IKKγ fragment encompassing residues 150 to 272 (domain or fragment)
chain: LGELQESQSRLEAATKECQALEGRARAASEQARQLESEREALQQQHSVQVDQLRMQGQSVEAALRMERQAASEEKRKLAQLQVAYHQLFQEYDNHIKSSVVGSERKRGMQLEDLKQQLQQAEE
As for B1, the Kd in assay [1] worked out at 0.2 µM; in assay [2], 30.4 µM.
